The values that follow come from PMC5823917, “Sumoylation regulates FMRP-mediated dendritic spine elimination and maturation” (Nature Communications, 2018).

The series concerns the molecule itself. Description: pull-down; GST-FMRP (1-160) 1 ug with 2 ug His-FMRP (1-160), 2 h at 4 °C in dimerization buffer (50 mM Tris-HCl pH 8, 150 mM NaCl, 2.5 mM MgCl2, 0.5% NP40, 0.5 mM DTT); glutathione beads, five washes; free GST as control.

B1: FMRP (1-160 aa), N-terminal domain, GST-tagged and His-tagged copies (domain or fragment)
chain: not shown
notes: FMRP, N-terminal domain, residues 1-160; Two differently tagged copies of one fragment: GST-FMRP (1-160) held on glutathione beads and His-FMRP (1-160) in solution; each copy carries one tag, not both; also called GST-FMRP (1-160); His-FMRP (1-160 aa); source: E. coli BL21(DE3), purified (glutathione gel for GST-FMRP, Nickel resin for His-FMRP)
B1: the binding result is reported as “binds”.
